Earlier results in publication PMC3433420.
Like-named read-outs stand apart in the source and are kept apart here.

What was measured:
Details in all cases: cited from earlier work
[1] = target: PIK3R3-NC (Homo sapiens) (UniProt Q92569)
[2] = target: PIK3R3-C (Homo sapiens) (UniProt Q92569)
[3] = target: ITK (Homo sapiens) (UniProt Q08881)
[4] = target: ABL1 (Homo sapiens) (UniProt P00519)
[5] = target: SYK-NC (Homo sapiens) (UniProt P43405)
[6] = target: GRAP2 (Homo sapiens) (UniProt O75791)
[7] = target: TENC1 (Homo sapiens) (UniProt Q63HR2)
[8] = target: SH3BP2 (Homo sapiens) (UniProt P78314)
[9] = target: PLCG1-NC (Homo sapiens) (UniProt P19174)
[10] = target: PIK3R1-N (Homo sapiens) (UniProt P27986)
[11] = target: PIK3R3-N (Homo sapiens) (UniProt Q92569)
[12] = target: BLK (Homo sapiens) (UniProt P51451)
[13] = target: SLA (Homo sapiens) (UniProt Q13239)
[14] = target: GRB2 (Homo sapiens) (UniProt P62993)
[15] = target: RASA1-N (Homo sapiens) (UniProt P20936)
[16] = target: SRC (Homo sapiens) (UniProt P12931)
[17] = target: FGR (Homo sapiens) (UniProt P09769)
[18] = target: PIK3R1-NC (Homo sapiens) (UniProt P27986)
[19] = target: BCAR3 (Homo sapiens) (UniProt O75815)
[20] = target: VAV1 (Homo sapiens) (UniProt P15498)
[21] = target: BMX (Homo sapiens) (UniProt P51813)
[22] = target: TNS3 (Homo sapiens) (UniProt Q68CZ2)
[23] = target: VAV2 (Homo sapiens) (UniProt P52735)
[24] = target: CRK (Homo sapiens) (UniProt P46108)
[25] = target: PIK3R2-N (Homo sapiens) (UniProt O00459)
[26] = target: PLCG1-C (Homo sapiens) (UniProt P19174)
[27] = target: CRKL (Homo sapiens) (UniProt P46109)
[28] = target: ABL2 (Homo sapiens) (UniProt P42684)
[29] = target: HCK (Homo sapiens) (UniProt P08631)
[30] = target: PTPN11-NC (Homo sapiens) (UniProt Q06124)
[31] = target: LYN (Homo sapiens) (UniProt P07948)
[32] = target: SH2D2A (Homo sapiens) (UniProt Q9NP31)
[33] = target: GRB7 (Homo sapiens) (UniProt Q14451)
[34] = target: NCK2 (Homo sapiens) (UniProt O43639)
[35] = target: PLCG2-NC (Homo sapiens) (UniProt P16885)
[36] = target: PIK3R2-NC (Homo sapiens) (UniProt O00459)
[37] = target: RASA1-N (Homo sapiens) (UniProt P20936); remark: listed apart in the source
[38] = target: PTPN11-N (Homo sapiens) (UniProt Q06124)
[39] = target: CRKL (Homo sapiens) (UniProt P46109); remark: listed apart in the source
[40] = target: RASA1-N (Homo sapiens) (UniProt P20936); remark: listed apart in the source
[41] = target: PLCG1-NC (Homo sapiens) (UniProt P19174); remark: listed apart in the source
[42] = target: NCK2 (Homo sapiens) (UniProt O43639); remark: listed apart in the source
[43] = target: VAV2 (Homo sapiens) (UniProt P52735); remark: listed apart in the source
[44] = target: VAV1 (Homo sapiens) (UniProt P15498); remark: listed apart in the source
[45] = target: VAV2 (Homo sapiens) (UniProt P52735); remark: listed apart in the source
[46] = target: CRK (Homo sapiens) (UniProt P46108); remark: listed apart in the source
[47] = target: PIK3R3-NC (Homo sapiens) (UniProt Q92569); remark: listed apart in the source
[48] = target: ABL2 (Homo sapiens) (UniProt P42684); remark: listed apart in the source
[49] = target: SLA (Homo sapiens) (UniProt Q13239); remark: listed apart in the source
[50] = target: ABL2 (Homo sapiens) (UniProt P42684); remark: listed apart in the source
[51] = target: PIK3R2-N (Homo sapiens) (UniProt O00459); remark: listed apart in the source
[52] = target: PLCG1-C (Homo sapiens) (UniProt P19174); remark: listed apart in the source
[53] = target: VAV3 (Homo sapiens) (UniProt Q9UKW4)
[54] = target: SYK-NC (Homo sapiens) (UniProt P43405); remark: listed apart in the source

RASA1-N (Homo sapiens), sequence (P20936 176-446): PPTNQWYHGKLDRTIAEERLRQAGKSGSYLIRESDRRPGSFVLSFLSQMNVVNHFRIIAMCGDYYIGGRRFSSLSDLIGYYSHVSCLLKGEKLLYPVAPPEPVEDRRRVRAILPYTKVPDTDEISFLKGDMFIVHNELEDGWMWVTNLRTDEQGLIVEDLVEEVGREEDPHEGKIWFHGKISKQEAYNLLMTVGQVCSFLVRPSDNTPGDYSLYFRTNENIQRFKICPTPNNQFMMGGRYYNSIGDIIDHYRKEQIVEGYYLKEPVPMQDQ
VAV2 (Homo sapiens), sequence (P52735 668-772): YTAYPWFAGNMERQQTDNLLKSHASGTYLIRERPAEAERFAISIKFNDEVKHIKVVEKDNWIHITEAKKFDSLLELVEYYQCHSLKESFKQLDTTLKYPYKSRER
ABL2 (Homo sapiens), sequence (P42684 168-268): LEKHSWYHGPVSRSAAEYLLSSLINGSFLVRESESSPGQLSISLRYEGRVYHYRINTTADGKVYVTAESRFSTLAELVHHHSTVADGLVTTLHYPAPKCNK
PIK3R2-N (Homo sapiens), sequence (O00459 325-721): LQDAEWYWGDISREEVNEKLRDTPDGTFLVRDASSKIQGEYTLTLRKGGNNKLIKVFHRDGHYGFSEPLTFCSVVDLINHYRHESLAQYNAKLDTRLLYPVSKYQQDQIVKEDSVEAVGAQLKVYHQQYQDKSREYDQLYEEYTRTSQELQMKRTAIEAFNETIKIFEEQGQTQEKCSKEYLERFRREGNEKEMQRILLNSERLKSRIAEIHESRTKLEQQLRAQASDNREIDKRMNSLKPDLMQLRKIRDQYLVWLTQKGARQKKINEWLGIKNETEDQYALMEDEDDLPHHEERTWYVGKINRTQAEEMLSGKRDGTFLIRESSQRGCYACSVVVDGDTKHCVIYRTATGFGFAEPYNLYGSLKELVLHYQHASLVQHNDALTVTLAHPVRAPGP
VAV1 (Homo sapiens), sequence (P15498 666-770): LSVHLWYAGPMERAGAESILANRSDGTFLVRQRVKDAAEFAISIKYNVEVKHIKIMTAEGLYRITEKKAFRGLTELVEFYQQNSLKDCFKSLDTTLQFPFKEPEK
CRKL (Homo sapiens), sequence (P46109 9-107): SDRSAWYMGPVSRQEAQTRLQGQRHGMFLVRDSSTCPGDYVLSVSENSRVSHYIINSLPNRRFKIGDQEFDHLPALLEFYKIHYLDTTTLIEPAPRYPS
CRK (Homo sapiens), sequence (P46108 8-123): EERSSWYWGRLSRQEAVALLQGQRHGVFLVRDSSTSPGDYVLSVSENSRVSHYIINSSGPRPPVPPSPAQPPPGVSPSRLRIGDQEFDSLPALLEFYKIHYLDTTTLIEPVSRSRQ
NCK2 (Homo sapiens), sequence (O43639 280-380): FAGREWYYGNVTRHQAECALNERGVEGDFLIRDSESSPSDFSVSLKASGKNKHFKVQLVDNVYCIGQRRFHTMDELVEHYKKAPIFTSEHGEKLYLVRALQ
SLA (Homo sapiens), sequence (Q13239 79-180): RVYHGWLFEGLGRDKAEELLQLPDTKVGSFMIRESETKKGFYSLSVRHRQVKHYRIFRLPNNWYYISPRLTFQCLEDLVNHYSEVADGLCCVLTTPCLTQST
PLCG1-NC (Homo sapiens), sequence (P19174 545-761): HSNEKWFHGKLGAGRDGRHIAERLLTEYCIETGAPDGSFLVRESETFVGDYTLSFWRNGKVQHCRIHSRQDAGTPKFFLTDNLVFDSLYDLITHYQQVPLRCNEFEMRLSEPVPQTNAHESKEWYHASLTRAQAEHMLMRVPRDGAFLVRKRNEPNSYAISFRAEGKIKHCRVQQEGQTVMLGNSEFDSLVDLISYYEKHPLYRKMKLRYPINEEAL
PLCG1-C (Homo sapiens), sequence (P19174 545-761): as above
GRAP2 (Homo sapiens), sequence (O75791 53-154): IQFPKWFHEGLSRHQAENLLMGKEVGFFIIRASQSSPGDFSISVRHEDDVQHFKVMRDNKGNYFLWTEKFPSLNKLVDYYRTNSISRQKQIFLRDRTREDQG
PIK3R2-NC (Homo sapiens), sequence (O00459 325-721): as the sequence (O00459 325-721) above
ITK (Homo sapiens), sequence (Q08881 234-343): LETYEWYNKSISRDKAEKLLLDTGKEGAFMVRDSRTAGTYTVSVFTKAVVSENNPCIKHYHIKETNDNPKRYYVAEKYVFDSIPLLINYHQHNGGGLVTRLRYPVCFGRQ
PIK3R1-N (Homo sapiens), sequence (P27986 328-723): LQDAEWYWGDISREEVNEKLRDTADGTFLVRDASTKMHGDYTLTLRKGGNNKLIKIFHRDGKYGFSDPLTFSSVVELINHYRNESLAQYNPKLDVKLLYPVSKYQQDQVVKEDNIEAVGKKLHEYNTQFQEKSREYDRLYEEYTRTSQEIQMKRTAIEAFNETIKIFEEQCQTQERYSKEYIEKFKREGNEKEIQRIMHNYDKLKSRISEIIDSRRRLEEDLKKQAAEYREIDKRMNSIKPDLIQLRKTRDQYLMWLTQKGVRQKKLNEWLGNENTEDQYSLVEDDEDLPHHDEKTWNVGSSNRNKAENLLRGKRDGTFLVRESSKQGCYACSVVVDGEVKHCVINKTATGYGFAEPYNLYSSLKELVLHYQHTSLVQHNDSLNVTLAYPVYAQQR
PIK3R1-NC (Homo sapiens), sequence (P27986 328-723): as above
BMX (Homo sapiens), sequence (P51813 291-397): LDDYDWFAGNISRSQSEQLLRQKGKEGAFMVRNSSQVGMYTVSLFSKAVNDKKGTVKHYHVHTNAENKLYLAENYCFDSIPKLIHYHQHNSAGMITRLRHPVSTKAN
SH2D2A (Homo sapiens), sequence (Q9NP31 90-191): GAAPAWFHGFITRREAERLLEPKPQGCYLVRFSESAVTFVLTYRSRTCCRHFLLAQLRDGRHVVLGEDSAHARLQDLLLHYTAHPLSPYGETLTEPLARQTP
BLK (Homo sapiens), sequence (P51451 119-225): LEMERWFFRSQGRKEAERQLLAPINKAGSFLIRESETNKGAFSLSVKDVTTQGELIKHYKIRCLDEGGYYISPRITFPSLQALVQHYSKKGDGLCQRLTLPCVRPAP
HCK (Homo sapiens), sequence (P08631 139-246): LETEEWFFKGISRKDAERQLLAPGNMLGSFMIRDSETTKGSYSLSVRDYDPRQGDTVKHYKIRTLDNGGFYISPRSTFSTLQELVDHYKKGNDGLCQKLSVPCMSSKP
TNS3 (Homo sapiens), sequence (Q68CZ2 1167-1287): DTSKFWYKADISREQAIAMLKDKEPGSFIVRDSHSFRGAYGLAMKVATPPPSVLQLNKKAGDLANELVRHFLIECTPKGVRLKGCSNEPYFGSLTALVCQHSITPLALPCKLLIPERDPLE
GRB7 (Homo sapiens), sequence (Q14451 426-532): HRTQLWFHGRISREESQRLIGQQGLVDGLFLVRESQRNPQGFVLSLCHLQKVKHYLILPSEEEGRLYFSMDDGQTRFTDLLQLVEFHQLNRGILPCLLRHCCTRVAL
PLCG2-NC (Homo sapiens), sequence (P16885 527-740): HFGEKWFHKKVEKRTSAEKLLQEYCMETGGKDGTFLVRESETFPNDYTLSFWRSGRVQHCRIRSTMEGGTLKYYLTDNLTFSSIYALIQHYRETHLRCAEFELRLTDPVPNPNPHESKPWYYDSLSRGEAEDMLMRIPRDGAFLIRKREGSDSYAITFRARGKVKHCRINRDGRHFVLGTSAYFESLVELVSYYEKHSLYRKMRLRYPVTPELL
VAV3 (Homo sapiens), sequence (Q9UKW4 667-771): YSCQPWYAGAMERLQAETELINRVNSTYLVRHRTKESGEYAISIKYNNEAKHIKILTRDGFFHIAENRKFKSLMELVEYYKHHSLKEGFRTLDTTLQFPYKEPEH

Substance: …pYVNQPDVR
- apparent Kd (screen) [1]: 304 nM
- apparent Kd (screen) [2]: 1220 nM
- apparent Kd (screen) [3]: 1510 nM
- apparent Kd (screen) [4]: 157 nM
- apparent Kd (screen) [5]: 973 nM
- apparent Kd (screen) [6]: 958 nM
- apparent Kd (screen) [7]: 565 nM
- apparent Kd (screen) [8]: 406 nM
- apparent Kd (screen) [9]: 2000 nM
- apparent Kd (screen) [10]: 508 nM
- apparent Kd (screen) [11]: 395 nM
- apparent Kd (screen) [12]: 2000 nM
- apparent Kd (screen) [13]: 2000 nM
- apparent Kd (screen) [14]: 76 nM
- apparent Kd (screen) [15]: 675 nM
- apparent Kd (screen) [16]: 2000 nM
- apparent Kd (screen) [17]: 454 nM
- apparent Kd (screen) [18]: 741 nM
- apparent Kd (screen) [19]: 1000 nM
- apparent Kd (screen) [20]: 206 nM
- apparent Kd (screen) [21]: 520 nM
- apparent Kd (screen) [22]: 765 nM
- apparent Kd (screen) [23]: 226 nM
- apparent Kd (screen) [24]: 2000 nM
- apparent Kd (screen) [25]: 281 nM
- apparent Kd (screen) [26]: 1930 nM
- apparent Kd (screen) [27]: 2000 nM
- apparent Kd (screen) [28]: 71 nM
- apparent Kd (screen) [29]: 2000 nM
- apparent Kd (screen) [30]: 877 nM
- apparent Kd (screen) [31]: 2000 nM
- apparent Kd (screen) [32]: 980 nM
- apparent Kd (screen) [33]: 2000 nM
- apparent Kd (screen) [34]: 777 nM
- apparent Kd (screen) [35]: 1280 nM
- apparent Kd (screen) [36]: 776 nM

Substance: …pYLNPVEENd
- apparent Kd (screen) [37]: 2000 nM
- apparent Kd (screen) [38]: 2000 nM
- apparent Kd (screen) [39]: 2000 nM
- apparent Kd (screen) [40]: 983 nM
- apparent Kd (screen) [41]: 2000 nM
- apparent Kd (screen) [42]: 2000 nM
- apparent Kd (screen) [43]: 100 nM
- apparent Kd (screen) [44]: 2000 nM
- apparent Kd (screen) [45]: 2000 nM
- apparent Kd (screen) [46]: 2000 nM
- apparent Kd (screen) [47]: 2000 nM
- apparent Kd (screen) [48]: 316 nM
- apparent Kd (screen) [49]: 2000 nM
- apparent Kd (screen) [50]: 283 nM
- apparent Kd (screen) [51]: 2000 nM
- apparent Kd (screen) [52]: 2000 nM
- apparent Kd (screen) [53]: 2000 nM
- apparent Kd (screen) [54]: 2000 nM
